This passage reports % BB found and % IgG results from patent US20150139996A1.

Experiment [1] addresses IgG1 heavy chain with CH3 construct 72 (L351D, R355D) (human) [IgG part: P01857]. Description: native MS; combination 8 co-expressed (A: VH MF1337, B: VH MF1122).
Experiment [2] has the same target. The experiment can be described thus: SDS-PAGE of protein A-purified supernatant; construct expressed alone.

In the case of “IgG1 heavy chain with CH3 construct 72 (L351D, R355D) (from UniProt P01857-1)”, the % BB found in experiment [1] is 8%. Besides, the % IgG in experiment [2] is 100%.
